From patent US20100105141, “Sulfonylurea-Responsive Repressor Proteins” (Pioneer Hi-Bred International, Inc., published 2010)

Target: L7-1F08-A11 (L7-A11, EsR2) (synthetic, UniProt P04483 SEQ:1-207, L55M,H64A,F67Y,F86M,H100C,R104G,P105F,K108Q,L113A,Q116S,L134M,S135Q,H139I,F140Y, …)
Test: EMSA; 5 pmol DNA, 20 mM Tris-HCl pH 8.0, 10 mM EDTA, RT 0.5 h; released by ethametsulfuron dose-dependently, less by chlorsulfuron; no change with atc
Conditions: chain copies: 2
Experimental: Five pmol of TetO or control DNA was mixed with the indicated amounts (FIG. 7) of ethametsulfuron repressor protein (L7A11) or BSA control with or without inducer in complex buffer containing 20 mM Tris-HCl (pH8.0) and 10 mM EDTA. The mixture was incubated at room temperature for 0.5 hour before loading onto the gel. The reaction was electrophoresed on a Novex 6% DNA retardation gel (Invitrogen, EC6365BOX) at room temperature, 38 V in 0.5×TBE buffer for about 2 hours. DNA was detected by ethidium bromide staining.

B1: tetO 48 bp (dsDNA)
DNA 1: CCTAATTTTTGTTGACACTCTATCATTGATAGAGTTATTTTACCACTC
DNA 2: GAGTGGTAAAATAACTCTATCAATGATAGAGTGTCAACAAAAATTAGG
- binding result: binds
